Patent US20260008852A1 (CRYSTAL BIOSCIENCE, published 2026)

Target: T1, his-tagged B7-H3 (UniProt Q5ZPR3-2 29-245, limits assumed)
T1 construct: also called CD276; not shown: His tag
T1 sequence (looked up): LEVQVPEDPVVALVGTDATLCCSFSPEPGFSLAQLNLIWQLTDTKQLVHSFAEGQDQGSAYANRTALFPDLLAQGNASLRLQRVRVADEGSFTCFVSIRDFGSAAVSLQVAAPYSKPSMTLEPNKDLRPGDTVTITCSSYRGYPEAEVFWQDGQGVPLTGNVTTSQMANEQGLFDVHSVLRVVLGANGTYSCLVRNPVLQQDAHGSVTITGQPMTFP
Assay: SPR, Carterra LSA; binder captured by anti-human Fc, his-tagged B7-H3 injected
Description: Binding affinities of anti-B7-H3 antibodies to B7-H3 were measured by Surface Plasmon Resonance (SPR) on a Carterra LSA instrument. Goat anti-human Fc antibody was amine coupled to a HC30M chip. ScFv-Fc supernatants were diluted 30-fold with HBSTE and were captured by the anti-human Fc coupled HC30M chip. A 1:2 dilution series of his-tagged B7-H3, starting at 400 nM, was injected onto the chip for binding. Data was analyzed using the Carterra TM Kinetics software.

| Binder | Kd | koff | kon |
| --- | --- | --- | --- |
| 40511p1.1.A1 scFv-Fc (scFv, V domains shown, Tested as scFv-Fc supernatant) VH: DVQLVESGGGVVRPGESLRLSCAASGFTFSNYAMNWVRQAPGEGLEWVSRINYKGYNITYYADSVKGRFTISRDNSKNTLYLQMNSLRAEDTAVYYCAKSGSNSNNFFDYWGLGTLVTVSS VL: EIVLTQSPGTLSVSPGERATLSCRASQSVNSKLAWYQQRPGQAPRLLIYDASSRATGIPDRFSGSGSGTDFTLTISRLEPEDFAVYYCQQYKNWPPLTFGGGTKVEIK | 463 nM | 0.04 s⁻¹ | 93000 M⁻¹ s⁻¹ |
| 40511p1.1.C3 scFv-Fc (scFv, V domains shown) VH: DVQLVESGGGVVRPGGSLRLSCAASGFTFRIYGMTWVRQAPGEGLEWVSTISGSGNSTYYADSVKGRFTISRDNSKNTLYLQMNSLRAEDTAVYYCAKTWNNYRFFDYWGLGTLVTVSS VL: EIVLTQSPGTLSLSPGERATLSCRASQPINSSYLAWYQQKPGQAPRLLIYAASSRATDIPDRFSGSGSGTDFTLTISSLQSEDFAVYYCQQYYDWPQFTFGGGTKVEIK | 47.7 nM | 0.02 s⁻¹ | 406000 M⁻¹ s⁻¹ |
| 40511p1.1.C4 scFv-Fc (scFv, V domains shown) VH: DVQLVESGGGVVRPGESLRLSCAASGFTFSSYAMSWVRQAPGEGLEWVSRISGSGNSTDYAESVKGRFTISRDSSKNTLYLQMNSLRAEDTAVYYCAKHSTVSFFDYWGLGTLVTVSS VL: EIVLTQSPGTLSLSPGERATLSCRASQSISSRYLAWYQQKPGQAPRLLIYGASRRATGIPARFSGSGSGTEFTLTISSLQSEDFAVYYCQQYGHWPPLTFGGGTKVEIK | 17.1 nM | – | 76900 M⁻¹ s⁻¹ |
| 40511p1.1.D3 scFv-Fc (scFv, V domains shown) VH: DVQLVESGGGVVRPGGSLRLSCAASGFTFRSYGMNWVRQAPGEGLEWVSRMSSGGGAYYADSVKGRFTISRDNSKNTLYLQMNSLRAEDTAVYYCARNSRDFFFDQWGLGTLVTVSS VL: ETVLTQSPGTLSLSPGERATLSCRASQSVNSKLAWYQQKPGQAPRLLIYGASSRATGIPARFSGSGSGTEFTLTISSLQTEDFAVYYCQQYSDWPPLTFGGGTKVEIK | 321 nM | 0.04 s⁻¹ | 109000 M⁻¹ s⁻¹ |
| 40511p1.1.D6 scFv-Fc (scFv, V domains shown, Tested as scFv-Fc supernatant) VH: DVQLVESGGGVVRPGESLTLSCAASGFTINSYAVSWVRQAPGEGLEWVSGISGSGVRYYADSVKGRFTISRDNSNNTLYLQMNSLRAEDTAVYYCARSNKVTWNNFFDYWGLGTLVTVSS VL: EVVLTQSPGTLTLSPGERATLSCRASRSILTSLAWYQQKPGQAPRLLIYNTVTRATGIPARFSGSGSGTEFTLTINSLQSEDFAVYYCQQYYDWPPLTFGGGTKVEIK | 0.325 nM | – | 669000 M⁻¹ s⁻¹ |
| 40511p1.1.G3 scFv-Fc (scFv, V domains shown, Tested as scFv-Fc supernatant) VH: DVQLVESGGGVVRPGESLTLSCAASGFTINSYAVSWVRQAPGEGLEWVSGISGSGVRYYADSVKGRFTISRDDSNNTLYLQMNSLRAEDTAVYYCARSNKVTWNNFFDYWGLGTLVTVSS VL: EVVLTQSPGTLTLSPGERATLSCRASRSILTSLAWYQQKPGQAPRLLIYNTVTRATGIPARFSGSGSGTEFTLTINSLQSEDFAVYYCQQYYDWPPLTFGGGTKVEIK | 0.759 nM | – | 494000 M⁻¹ s⁻¹ |
| 40511p1.1.D8 scFv-Fc (scFv, V domains shown) VH: DVQLVESGGGVVRPGESLRLSCAASGFTFSSYAMSWVRQAPGEGLEWVSSISGSGGSTLYADSVKGRFTISRDSSNNSLYLQMNSLRAEDTAVYYCAKARNNFFDYWGLGTLVTVSS VL: EIVLTQSPGTLTLSPGERATLSCRASRSILTSLAWYQQRPGQAPRLLIYGANSRATGIPDRFSGSGSGTEFTLTISSLQSEDFAVYYCQQYYDWLTITFGGGTKVEIK | 71.8 nM | 0.02 s⁻¹ | 340000 M⁻¹ s⁻¹ |
| 40511p1.2.A12 scFv-Fc (scFv, V domains shown, Tested as scFv-Fc supernatant; also called 40511p1.2.Al2) VH: DVQLVESGGGVVRPGESLRLSCAASGFTFSSYAESWVRQAPGEGLEWVSIISGSGGNTFYADSVKGRFTISRDNSKNTLYLQMNSLRAEDTAVYYCARFAYGFFDYWGLGTLVTVSS VL: EIVLTQSPGTLSVSPGERATLSCRASQTVGSKLAWYQQKPGQPPSLLIYDASTRATGIPDRFSGSGSGTDFTLTISSLQSEDFAVYYCQQYRNWPPLTFGGGTKVEIK | 25.1 nM | 0.03 s⁻¹ | 1.32e+06 M⁻¹ s⁻¹ |
| 40511p1.1.G1 scFv-Fc (scFv, V domains shown, Tested as scFv-Fc supernatant) VH: DVQLVESGGGVVRPGESLRLSCAASGFTFSSYAESWVRQAPGEGLEWVSIISGSGGNTFYADSVKGRFTISRDNSKNTLYLQMNSLRAEDTAVYYCARFAYGFFDYWGLGTLVTVSS VL: EIVLTQSPGTLSVSPGEGATLSCRASQTVGSKLAWYQQKPGQPPSLLIYDASTRATGIPDRFSGSGSGTDFTLTISSLQSEDFAVYYCQQYRNWPPLTFGGGTKVEIK | 54.4 nM | 0.02 s⁻¹ | 458000 M⁻¹ s⁻¹ |
| 40511p1.2.A4 scFv-Fc (scFv, V domains shown, Tested as scFv-Fc supernatant) VH: DVQLVESGGGVVRPGESLRLSCAASGFTFSSYAESWVRQAPGEGLEWVSIISGSGGNTFYADSVKGRFTISRDNSKNTLYLQMNSLRAEDTAVYYCARFAYGFFDYWGLGTLVTVSS VL: EIVLTQSPGTLSVSPGERATLSCRASQTVGSKLAWYQQKPGQAPRLLIYDASTRATDIPDRFSGSGSGTDFTLTISSLQSEDFAVYYCQQYRNWPPLTFGGGTKVEIK | 52 nM | 0.04 s⁻¹ | 768000 M⁻¹ s⁻¹ |
| 40511p1.1.H10 scFv-Fc (scFv, V domains shown) VH: DVQLVESGGGVVRPGESLRLSCAASGFTFSNYAMNWVRQAPGEGLEWVSRINYKGYNITYYADSVKGRFTISRDNSKNTLYLQMNSLRAEDTAVYYCAKSGSNSNNFFDYWGLGTLVTVSS VL: EIVLTQSPGNLSLSPGERATLSCRASQSVGSQLGWYQQKPGQAPRLLIYGASTRATGIPDRFSGSGSGTEFALTISSLQSEDFAVYYCQQYYDWPPLTFGGGTKVEIK | 1.41 nM | – | 752000 M⁻¹ s⁻¹ |
| 40511p1.1.H5 scFv-Fc (scFv, V domains shown, Tested as scFv-Fc supernatant) VH: DVQLVESGGGVVRPGESLRLSCAASGFTFSNYAMNWVRQAPGEGLEWVSRINYKGYNITYYADSVKGRFTISRDNSKNTLYLQMNSLRAEDTAVYYCAKSGSNSNNFFDYWGLGTLVTVSS VL: EIVLTQSPGTLSLSPGERATLSCRASQSIRSDLAWYQQKPGQAPRLLIYGAASRATGIPARFSGSGSGTEFTLTISSLQSGDFAVYYCQQYNSWPPLTFGGGTKVEIK | 123 nM | – | 10300 M⁻¹ s⁻¹ |
| 40511p1.2.G10 scFv-Fc (scFv, V domains shown, Tested as scFv-Fc supernatant) VH: DVQLVESGGGVVRPGESLRLSCAASGFTFSNYAMNWVRQAPGEGLEWVSRINYKGYNITYYADSVKGRFTISRDNSKNTLYLQMNSLRAEDTAVYYCAKSGSNSNNFFDYWGLGTLVTVSS VL: EIVLTQSPGTLSLSPGERATLSCRASQTVGSKLAWYQQKPGQAPRLLIYGASTRATDIPDRFSGSGSGTEFTLTISSLQSEDFAVYYCQQYINWPPLSFGGGTKVEIK | 15 nM | 0.01 s⁻¹ | 645000 M⁻¹ s⁻¹ |
| 40511p1.2.A8 scFv-Fc (scFv, V domains shown) VH: not shown VL: EIVLTQSPATLSVSPGERATFSCRASQNVRSYLAWYQQKPGQAPRLLIFNTVTRATGIPDRFSGSGSGTDFTLTISSLEPEDFAVYYCQQYYDWPPLTFGGGTKVEIK | 0.639 nM | – | 364000 M⁻¹ s⁻¹ |
| 40511p1.2.B5 scFv-Fc (scFv, V domains shown) VH: DVQLVESGGGVVRPGESLRLSCAASGFTFSSYAMSWVRQAPGEGLEWVSSISGSGGSTLYADSVKGRFTISRDSSNNSLYLQMNSLRAEDTAVYYCAKARNNFFDYWGLGTLVTVSS VL: EIVLTQSPGTLTLSPGERATLSCRASRSILTSLAWYQQRPGQTPRLLIYGANSRATGIPDRFSGSGSGTEFTLTISSLQSEDFAVYYCQQYYDWLTITFGGGTKVEIK | 61.2 nM | 0.05 s⁻¹ | 795000 M⁻¹ s⁻¹ |
| 40579p1.B8 scFv-Fc (scFv, V domains shown) VH: EVQLLESGGGLVQPGGSLRLSCAASGFTFSDYYMSWVRQAPGKGLEWVSGISMSSTIYYADSVKGRFTISRDNSKNTLYLQMNSLRAEDTAVYYCARHRSPYQYRSMDVWGQGTTVTVSS VL: EIVLTQSPGTLSLSPGERATLSCRASQSVNSKLAWYQQKPGQPPSLLIYDASRRATGIPDRFSGSGSGTEFTLTISSLQSEDFAVYYCQQYNNWPPLTFGGGTKVEIK | 3.1 nM | – | 622000 M⁻¹ s⁻¹ |
| 40579p1.C2 scFv-Fc (scFv, V domains shown, Tested as scFv-Fc supernatant) VH: EVQLLESGGDLVQPGGSLRLSCAASGFNFSSYWMSWVRQAPGKGLEWVSGISISYGGNAYYADSVKGRFTVSRDNSKNTLYLQMNSLRAEDTAVYYCGRDRSPYQYRSMDVWGQGTTVTVSS VL: EIVLTQSPATLSVSPGERATFSCRASQTIGNKLAWYQQKPGQAPRLLIFSASTRATDIPDRFSGSGSGTDFTLTISSLQSEDFAVYYCQQYNNWPPLTFGGGTKVEIK | 9.11 nM | – | 452000 M⁻¹ s⁻¹ |
| 40579p1.D8 scFv-Fc (scFv, V domains shown, Tested as scFv-Fc supernatant) VH: EVQLLESGGGLVQPGGSLRLSCAASGFTFSDYYMSWVRQAPGKGLEWVSSISISYGGTTYYADSVKGRFTISRDNSKNTLYLQMNSLRAEDTAVYYCARDRSPYQCRSMDVWGQGTTVTVSS VL: EIVLTQSPGTLSLSPGERATLSCRASQSIRSDLAWYQQKPGQAPRLLIYNTVTRATGVPDRFSGSGSGTEFTLTISSLQSEDFAVYYCQQYNSWPPLTFGGGTKVEIK | 44.2 nM | – | 25700 M⁻¹ s⁻¹ |
| 40579p1.E5 scFv-Fc (scFv, V domains shown) VH: EVQLLESGGGLVQPGGSLRLSCAASGFTFSDDWMTWVRQAPGKGLEWVSAINWNGNSTHYADSVKGRFTVSRDNSKNTLYLQMNSLRAEDTAVYYCAKSRTTYYSSMDVWGQGTTVTVSS VL: EIVLTQSPGTLSLSPGERATLSCRASQTVGSYLAWYQQKPGQAPRLLIYGASSRATGIPARFSGSGSGTDFTLTISSLQSEDFAVYYCQHYYDWPPYSFGGGTKVEIK | 2.51 nM | – | 493000 M⁻¹ s⁻¹ |
